Five molecules from paper PMC3936768, “Transcription factor abundance controlled by an auto-regulatory mechanism involving a transcription start site switch” can be followed below.

The data set has as its target T1, ZNF143 DBD (UniProt P52747 237-440).
T1 sequence: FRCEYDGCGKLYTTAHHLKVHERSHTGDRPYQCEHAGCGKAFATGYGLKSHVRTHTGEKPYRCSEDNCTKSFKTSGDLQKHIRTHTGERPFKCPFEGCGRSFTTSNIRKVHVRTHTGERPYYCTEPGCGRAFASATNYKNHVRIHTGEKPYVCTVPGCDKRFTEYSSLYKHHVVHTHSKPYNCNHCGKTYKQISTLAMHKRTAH
The experiment in a line: EMSA; 20 fmol 32P probe; 4% native PAGE in 0.25x TBE; competition: 20 min preincubation at room temperature, 10 uL; buffer as in ref 33 (not given); competitor excess 200-fold (Methods) or 1000-fold (Fig 2E legend). The settings on record: protein: recombinant, blunt.

B1: SBS/A (dsDNA)
DNA 1: CAGCCCAATGGAAGCTGGGGGCG
DNA 2: CGCCCCCAGCTTCCATTGGGCTG
As to B1, the binding result (label: 5' 32P) is given as “no binding”.

B2: SBS/B (dsDNA)
DNA 1: TGTCCTGGTGCATGGTGGTCGGA
DNA 2: TCCGACCACCATGCACCAGGACA
Consider B2, for which the binding result is “binds”.

B3: SBS/C (dsDNA)
DNA 1: TTTTACCCAGTGTGCATTATTCTCC
DNA 2: GGAGAATAATGCACACTGGGTAAAA
In the case of B3, the binding result was “binds”.

B4: mut SBS/B- (dsDNA)
DNA 1: CGATTACCATGCACCAGGACAGG
DNA 2: CCTGTCCTGGTGCATGGTAATCG
Regarding B4, for the setting “label: 5' 32P”, the binding result is “no binding”.

B5: mut SBS/C- (dsDNA)
DNA 1: GTTTTTAAAACGTGTGCATTATTCTCC
DNA 2: GGAGAATAATGCACACGTTTTAAAAAC
As to B5, under “label: 5' 32P”, the binding result is listed as “no binding”.
